The record followed here is patent US20170219596A1.

Assay [1] has as its target mito-mCherry-4×GCN4pep with short linker (GGSGG; SEQ ID NO:3) (yeast). Briefly: quantitative fluorescence microscopy on mitochondria, normalized to a sfGFP-mCherry fusion; antibodies per 4× array, short linker.
Assay [2] concerns the target mito-mCherry-4×GCN4pep (yeast). Briefly: FRAP of scFv-GCN4-GFP bound to the mitochondrial scaffold in U2OS cells.
For a further assay, the target named is dCas9-SunTag10×_v4. As to the kind of experiment: cell-based or functional assay.

As for scFv-GCN4-sfGFP-GB1, the average GFP:mCherry molar ratio in assay [1] is 3.4. The half-life of GFP fluorescence recovery (FRAP) in assay [2] was in the range of 5 to 10 min.

For scFv-GCN4-GFP-NLS-VP64, in the assay with dCas9-SunTag10×_v4, the activation of CDKN1B transcription (mRNA by qPCR, K562 cells) worked out at 330% and the activation of CXCR4 expression (CXCR4 protein level by FACS, K562 cells) lay within 10 to 50 fold.
